Test results as given in patent publication US7119182 (University of California, dated 2006).
Square brackets hold non-standard residues; d marks the D form. Ends that are not written are not given here. Cha = N[C@@H](CC1CCCCC1)C(=O)O; Mpa = O=C(O)CCS

T1: human thrombin receptor (human, UniProt P25116 42-425)
T1 chain: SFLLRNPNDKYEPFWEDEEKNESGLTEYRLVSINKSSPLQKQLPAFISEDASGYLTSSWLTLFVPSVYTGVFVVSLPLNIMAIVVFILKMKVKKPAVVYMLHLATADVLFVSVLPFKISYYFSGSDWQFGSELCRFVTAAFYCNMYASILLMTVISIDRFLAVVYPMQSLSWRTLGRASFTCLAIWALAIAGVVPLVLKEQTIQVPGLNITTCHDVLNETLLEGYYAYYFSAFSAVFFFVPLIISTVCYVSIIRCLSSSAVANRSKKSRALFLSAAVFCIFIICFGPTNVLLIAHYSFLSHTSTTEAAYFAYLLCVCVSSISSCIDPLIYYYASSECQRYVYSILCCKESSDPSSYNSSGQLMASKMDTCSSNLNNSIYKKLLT

B1: Mpr-F(Cha) (Cha)RNPNDK (peptide)
peptide: [Mpa]F[Cha][Cha]RNPNDK-OH
SMILES: N=C(N)NCCC[C@H](NC(=O)[C@H](CC1CCCCC1)NC(=O)[C@H](CC1CCCCC1)NC(=O)[C@H](Cc1ccccc1)NC(=O)CCS)C(=O)N[C@@H](CC(N)=O)C(=O)N1CCC[C@H]1C(=O)N[C@@H](CC(N)=O)C(=O)N[C@@H](CC(=O)O)C(=O)N[C@@H](CCCCN)C(=O)O
B2: Mpr-F(Cha) (Cha)RNPNDKYE-NH2 (peptide)
peptide: [Mpa]F[Cha][Cha]RNPNDKYE-NH2
SMILES: N=C(N)NCCC[C@H](NC(=O)[C@H](CC1CCCCC1)NC(=O)[C@H](CC1CCCCC1)NC(=O)[C@H](Cc1ccccc1)NC(=O)CCS)C(=O)N[C@@H](CC(N)=O)C(=O)N1CCC[C@H]1C(=O)N[C@@H](CC(N)=O)C(=O)N[C@@H](CC(=O)O)C(=O)N[C@@H](CCCCN)C(=O)N[C@@H](Cc1ccc(O)cc1)C(=O)N[C@@H](CCC(=O)O)C(N)=O
B3: Mpr-F(Cha) (Cha)RNPNDKY-NH2 (peptide)
peptide: [Mpa]F[Cha][Cha]RNPNDKY-NH2
SMILES: N=C(N)NCCC[C@H](NC(=O)[C@H](CC1CCCCC1)NC(=O)[C@H](CC1CCCCC1)NC(=O)[C@H](Cc1ccccc1)NC(=O)CCS)C(=O)N[C@@H](CC(N)=O)C(=O)N1CCC[C@H]1C(=O)N[C@@H](CC(N)=O)C(=O)N[C@@H](CC(=O)O)C(=O)N[C@@H](CCCCN)C(=O)N[C@@H](Cc1ccc(O)cc1)C(N)=O
B4: Mpr-F(Cha) (Cha)RNPNDK-NH2 (peptide)
peptide: [Mpa]F[Cha][Cha]RNPNDK-NH2
SMILES: N=C(N)NCCC[C@H](NC(=O)[C@H](CC1CCCCC1)NC(=O)[C@H](CC1CCCCC1)NC(=O)[C@H](Cc1ccccc1)NC(=O)CCS)C(=O)N[C@@H](CC(N)=O)C(=O)N1CCC[C@H]1C(=O)N[C@@H](CC(N)=O)C(=O)N[C@@H](CC(=O)O)C(=O)N[C@@H](CCCCN)C(N)=O
B5: Mpr-F(Cha) (Cha)RNPND-NH2 (peptide)
peptide: [Mpa]F[Cha][Cha]RNPND-NH2
SMILES: N=C(N)NCCC[C@H](NC(=O)[C@H](CC1CCCCC1)NC(=O)[C@H](CC1CCCCC1)NC(=O)[C@H](Cc1ccccc1)NC(=O)CCS)C(=O)N[C@@H](CC(N)=O)C(=O)N1CCC[C@H]1C(=O)N[C@@H](CC(N)=O)C(=O)N[C@@H](CC(=O)O)C(N)=O
B6: Mpr-F(Cha) (Cha)RN-NH2 (peptide)
peptide: [Mpa]F[Cha][Cha]RN-NH2
SMILES: N=C(N)NCCC[C@H](NC(=O)[C@H](CC1CCCCC1)NC(=O)[C@H](CC1CCCCC1)NC(=O)[C@H](Cc1ccccc1)NC(=O)CCS)C(=O)N[C@@H](CC(N)=O)C(N)=O
B7: Mpr-F(Cha) (Cha)RAPNDK-NH2 (peptide)
peptide: [Mpa]F[Cha][Cha]RAPNDK-NH2
SMILES: C[C@H](NC(=O)[C@H](CCCNC(=N)N)NC(=O)[C@H](CC1CCCCC1)NC(=O)[C@H](CC1CCCCC1)NC(=O)[C@H](Cc1ccccc1)NC(=O)CCS)C(=O)N1CCC[C@H]1C(=O)N[C@@H](CC(N)=O)C(=O)N[C@@H](CC(=O)O)C(=O)N[C@@H](CCCCN)C(N)=O
B8: Mpr-F(Cha) (Cha)RGPNDK-NH2 (peptide)
peptide: [Mpa]F[Cha][Cha]RGPNDK-NH2
SMILES: N=C(N)NCCC[C@H](NC(=O)[C@H](CC1CCCCC1)NC(=O)[C@H](CC1CCCCC1)NC(=O)[C@H](Cc1ccccc1)NC(=O)CCS)C(=O)NCC(=O)N1CCC[C@H]1C(=O)N[C@@H](CC(N)=O)C(=O)N[C@@H](CC(=O)O)C(=O)N[C@@H](CCCCN)C(N)=O
B9: Mpr-F(Cha) (Cha)RFPNDK-NH2 (peptide)
peptide: [Mpa]F[Cha][Cha]RFPNDK-NH2
SMILES: N=C(N)NCCC[C@H](NC(=O)[C@H](CC1CCCCC1)NC(=O)[C@H](CC1CCCCC1)NC(=O)[C@H](Cc1ccccc1)NC(=O)CCS)C(=O)N[C@@H](Cc1ccccc1)C(=O)N1CCC[C@H]1C(=O)N[C@@H](CC(N)=O)C(=O)N[C@@H](CC(=O)O)C(=O)N[C@@H](CCCCN)C(N)=O
B10: Mpr-F(Cha) (Cha)RNANDK-NH2 (peptide)
peptide: [Mpa]F[Cha][Cha]RNANDK-NH2
SMILES: C[C@H](NC(=O)[C@H](CC(N)=O)NC(=O)[C@H](CCCNC(=N)N)NC(=O)[C@H](CC1CCCCC1)NC(=O)[C@H](CC1CCCCC1)NC(=O)[C@H](Cc1ccccc1)NC(=O)CCS)C(=O)N[C@@H](CC(N)=O)C(=O)N[C@@H](CC(=O)O)C(=O)N[C@@H](CCCCN)C(N)=O
B11: Mpr-F(Cha) (Cha)RNPADK-NH2 (peptide)
peptide: [Mpa]F[Cha][Cha]RNPADK-NH2
SMILES: C[C@H](NC(=O)[C@@H]1CCCN1C(=O)[C@H](CC(N)=O)NC(=O)[C@H](CCCNC(=N)N)NC(=O)[C@H](CC1CCCCC1)NC(=O)[C@H](CC1CCCCC1)NC(=O)[C@H](Cc1ccccc1)NC(=O)CCS)C(=O)N[C@@H](CC(=O)O)C(=O)N[C@@H](CCCCN)C(N)=O
B12: SFF(Cha)RA-NH2 (peptide)
peptide: SFF[Cha]RA-NH2
modifications: N-terminus assumed
SMILES: C[C@H](NC(=O)[C@H](CCCNC(=N)N)NC(=O)[C@H](CC1CCCCC1)NC(=O)[C@H](Cc1ccccc1)NC(=O)[C@H](Cc1ccccc1)NC(=O)[C@@H](N)CO)C(N)=O
B13: SF(Cha) (Cha)RK-NH2 (peptide)
peptide: SF[Cha][Cha]RK-NH2
modifications: N-terminus assumed
SMILES: N=C(N)NCCC[C@H](NC(=O)[C@H](CC1CCCCC1)NC(=O)[C@H](CC1CCCCC1)NC(=O)[C@H](Cc1ccccc1)NC(=O)[C@@H](N)CO)C(=O)N[C@@H](CCCCN)C(N)=O

Assays:
[1] = target: T1, human thrombin receptor; assay: cell-based or functional assay
[2] = target: T1, human thrombin receptor; assay: cell-based or functional assay

Row | Binder | IC50 (50% inhibition of thrombin-induced platelet activation or aggregation) [1] [µM] | EC50 (concentration required to elicit a 50% maximal aggregation), platelet aggregation [2] [µM]
1 | [Mpa]FLLRNPNC-NH2 (cysteine pairing not given here) [Mpr-FLLRNPNC-NH2] | 400 | 
2 | B1 | 30 | 
3 | [Mpa]F[Cha][Cha]RNPNDKY [Mpr-F(Cha) (Cha)RNPNDKY] | 40 | 
4 | B2 | 80 | 
5 | B3 | 75 | 
6 | B4 | 25 | 
7 | B5 | 50 | 
8 | B6 | 100 | 
9 | B7 | 40 | 
10 | B8 | 20 | 
11 | B9 | > 100 | 
12 | [Mpa]F[Cha][Cha]RKPNDK-NH2 [Mpr-F(Cha) (Cha)RKPNDK-NH2] | 5 | 
13 | B10 | 75 | 
14 | B11 | 75 | 
15 | SFLLLN-NH2 [SFLLLN-NH2] |  | 44.9
16 | SFLLQN-NH2 [SFLLQN-NH2] |  | 20.2
17 | SFLLKN-NH2 [SFLLKN-NH2] |  | 11.1
18 | B12 |  | 1.4
19 | B13 |  | 0.82
